Data set [1] concerns Nc1ncnc2c1ncn2[C@@H]1O[C@H](COP(=O)(O)OP(=O)(O)OP(=O)(O)O)[C@@H](O)[C@H]1O. In words: Affinity of ATP to EIEC apyrase (Table 6). It is filed as biochemical. To be noted: other: EIEC apyrase, pH 7.5, 37.0 °C. An excerpt: (§1) Respective colorimetric/fluorescence assays (mentioned above).
Data set [2] has as its system O=[N+]([O-])c1ccc(OP(=O)(O)O)cc1. In words: Affinity of pNPP to EIEC apyrase (Table 6). It is filed as biochemical. The conditions noted are these: other: EIEC apyrase, pH 7.5, 37.0 °C.
From the text: (§2) The formation of product. Para-nitro phenol was monitored colorimetrically at 405 nm using multi-mode spectrophotometer (Biotek instruments).
as §1

Data set [3] shares this test system. In words: pNPP dephosphorylation (Example 3), mutant. To be noted: other: mutant of Example 1, 50 mM Tris, pH 7.5, 37° C., 15 min, 2 μg enzyme. It is filed as biochemical, Shigella flexneri. How it is done: In order to improve the activity of apyrase and its tolerance to high salt conditions, the inventors mutated the apyrase gene randomly using an error prone PCR method starting from the wild-type Shigella flexneri apyrase DNA sequence (SEQ ID NO: 4) as template. The method incorporates repeated copying of the template at high MgCl2 concentration (5 mM) with Taq polymerase. After every fourth cycle, one fifth of the reaction mixture was transferred to fresh PCR tube and the same process was repeated 22 times to obtain a product that will have randomly mutated nucleotides which can be identified by sequencing. The mutated gene was cloned in pET21a vector. The mutated DNA sequence obtained is presented as SEQ ID NO: 2, containing a total of 31 mutations leading to amino-acid changes (see SEQ ID NO:3 compared to the wild-type amino-acid sequence of SEQ ID NO: 1).
(§3) Products: para Nitro phenol (PNP, yellow colour, absorbance at 405 nm) and phosphate • pNPP+Apyrase→PNP+Pi
To further study the capability of the mutant enzyme to hydrolyse pNPP, the substrate (pNPP) was titrated and incubated with the mutant apyrase. […]
The enzymes (2 μg) were incubated with different concentrations of pNPP (dissolved in 50 mM Tris, pH 7.5) in a 100 μL reaction mixture. […] These were incubated at 37° C. for 15 minutes and absorbance was taken at 405 nm.

For data set [4], the target named is T1, wild-type Shigella flexneri apyrase, SEQ ID NO: 1 (Shigella flexneri, UniProt Q59909).
T1 sequence (Q59909 26-246): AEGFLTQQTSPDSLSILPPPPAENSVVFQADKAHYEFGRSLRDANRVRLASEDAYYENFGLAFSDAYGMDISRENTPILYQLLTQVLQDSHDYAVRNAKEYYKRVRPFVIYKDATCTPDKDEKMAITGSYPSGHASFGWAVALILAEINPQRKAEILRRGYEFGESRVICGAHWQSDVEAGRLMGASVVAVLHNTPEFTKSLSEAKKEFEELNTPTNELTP
In words: pNPP dephosphorylation (Example 3), wild type. It counts as biochemical. The conditions noted are these: 50 mM Tris, pH 7.5, 37° C., 15 min, 2 μg enzyme. The method, then:
as §3
(§4) To further study the capability of the mutant enzyme to hydrolyse pNPP, the substrate (pNPP) was titrated and incubated with the mutant apyrase. As controls, alkaline phosphatase (known to hydrolyse pNPP) and the wildtype enzyme were also included.
(§5) The enzymes (2 μg) were incubated with different concentrations of pNPP (dissolved in 50 mM Tris, pH 7.5) in a 100 μL reaction mixture. For alkaline phosphatase, pNPP was dissolved in carbonate buffer (pH 10.3). Control reaction with pNPP lacking WT, mutant apyrase and alkaline phosphatase was also included. These were incubated at 37° C. for 15 minutes and absorbance was taken at 405 nm.

The next data set relates to alkaline phosphatase. In words: pNPP dephosphorylation (Example 3), alkaline phosphatase. It is filed as biochemical. The conditions noted are these: carbonate buffer pH 10.3, 37° C., 15 min, 2 μg enzyme. How it is done: as §3, §4, §5
Data set [5] deals with EIEC apyrase variant H116L. The experiment in a line: Affinity of pNPP to EIEC H116L (Table 6). It is filed as biochemical.
From the text: as §2, §1

Data set [6] deals with O=[N+]([O-])c1ccc(OP(=O)(O)O)cc1. The experiment in a line: Affinity towards pNPP, L66V. It is filed as biochemical, Shigella flexneri. To be noted: other: L66V, 50 mM Tris-HCl pH 7.5, 37° C., 20 min, 500 ng enzyme.
From the text: However, not all reactions successfully generated PCR products by agarose gel electrophoresis. The successful mutations were transformed into the expression host and proteins were expressed and purified to homogeneity by affinity chromatography.
Other substrates like 2-Glycerophosphate, Pyridoxal phosphate and phenyl phosphate were not hydrolysed by the mutants (Table 2 and FIG. 8A-B).
as §2, §1

The subject of data set [7] is Cc1ncc(C[n+]2csc(CCO[P@](=O)(O)OP(=O)(O)O)c2C)c(N)n1. The experiment in a line: purified protein, by the assay type. The conditions noted are these: other: L66V, TPP, 50 mM Tris-HCl pH 7.5, 37° C., 20 min, 500 ng enzyme.
Procedure: The kinetic curves were plotted and the Michaelis Menten constant (Km) was calculated using GraphPad Prism 5.0 software.
A short description of data set [8]: pNPP dephosphorylation assay (Example 3). It counts as biochemical. To be noted: 2 μg enzyme, 3 mM pNPP, 50 mM Tris pH 7.5, 37° C., 15 minutes, FIG. 5. How it is done:
Wild-type and mutant apyrase from Example 1 (2 μg each) were incubated with 3 mM pNPP (pNPP was dissolved in 50 mM Tris pH 7.5) in a 100 μL reaction mixture. Control reaction with pNPP lacking WT and mutant apyrase was also included. These were incubated at 37° C. for 15 minutes and absorbance was taken at 405 nm.
as §4, §5

Data set [9] is described as follows: TPP assay / affinity (Examples 4-5). The conditions noted are these: 5.0 mM TPP, 20 minutes, 37° C.; FIG. 8B, 9C. It is filed as biochemical. The method, then:
A stock of freshly prepared TPP (50 mM) was prepared before performing every assay. […] Hydrolysis of Thiamine pyrophosphate (TPP) releases Thiamine, which forms a thiochrome fluorophore on addition of hydrogen peroxide and horse radish peroxidase (HRP) in alkaline conditions (NaOH-HRP-H2O2-1M NaOH, 5 U/mL HRP, 50 mM H2O2 mixed in a volumetric ratio of 3:1:1). Fluorescence was measured using multi-mode spectrophotometer (Biotek instruments) with excitation at 368 nm and emission at 450 nm.
as §1

For data set [10] the following is noted: Bhargava et al. Current Science 1995; cited from earlier work.
A short description of data set [11]: pNPP assay / affinity (Examples 4-5). It is filed as biochemical. The conditions noted are these: 2.0 mM pNPP, 20 minutes, 37° C.; FIG. 8A, 9B.
From the text: as §2, §1

Data set [12] in a line: Whole cell ATP degradation activity assay (periplasmic samples, AMFAS). It counts as biochemical. To be noted: induced cells, lysozyme/EDTA, 37° C., 30 minutes. The method, then: As a crude assay for confirming expression of active enzyme, a whole cell ATP degradation activity assay was performed. 100 mM ATP was prepared in 50 mM Tris, pH 7.5. After dissolution, the pH was adjusted to 7.5 using NaOH. Pellets from 1 mL culture of induced cells were taken and washed twice with saline containing 1 mM Calcium chloride. The cells were treated with Lysozyme and EDTA to lyse the cell wall to release the periplasmic contents.
150 μL of 40 mM EDTA and 150 μL of 10 mM ATP was added to the pellet and mixed well, followed by incubation at 37° C. for 30 minutes.

Data set [13] is described as follows: ATP hydrolysis using purified recombinant apyrase (AMFAS, Example 2). It counts as biochemical. The method, then: A titrated series of ATP solutions from 100 mM to 0.01 mM in 50 mM Tris, pH 7.5 were prepared and incubated with 700 ng of Apyrase (mutant prepared in Example 1 and wild-type Shigella flexneri apyrase as control) for 30 minutes at 37° C. (100 μL reaction). After the incubation, 100 μL AMFAS reagent was added and OD was taken at 630 nm using multimode reader (Biotek instruments). The color formation is proportional to the amount of ATP degraded (dephosphorylated to ADP or AMP). […] Specific activity at 10 mM ATP was determined as 6.3 μmoles/min/mg for the mutant apyrase.

What is called Km is the substrate concentration at which the rate is half of its maximum. EIEC apyrase (Escherichia coli): the Michaelis constant (Km) in [1] is 21.0 µM; in data set [2], 25.0 mM.

Turning to “Shigella flexneri apyrase, mutant apyrase of Example 1, SEQ ID NO: 3 (S50N, F54V, G63R, L66V, N70Q, E77V, A791, D90T, S97T, L108M, Q113N, V120R, K124R, Y127Q, P143R, 1151L, F162N, A167G, N174Q, K177R, L182F, G184A, W199Y, G206R, V213A, N219K, F223W, L227S, F234Y, T239Q, E243D) (Shigella flexneri; A167G/A79I/D90T/E243D/E77V/F162N/F223W/F234Y/F53V/G185A/G206R/G63R/I151L/K124R/K178R/L108M/L182F/L227S/L66V/N174Q/N219K/N70Q/P143R/Q113N/S50N/S97T/T239Q/V120R/V213A/W199Y/Y127Q)”, in data set [3], the Km amounted to 2.1 mM.

For the molecule `O=[N+]([O-])c1ccc(OP(=O)(O)O)cc1` [pNPP, para-Nitrophenylphosphate], the “Km for pNPP” value in data set [4] was “Too low affinity”. Further, the Km in the data set on alkaline phosphatase is 8.4 mM; in [5] it was 3.5 mM.

On to “Shigella flexneri apyrase (ApiOne, SEQ ID NO: 1) ApiTwo mutant L66V (Shigella flexneri; L66V)”, for which the Km in [6] amounted to 0.76 mM; in data set [7] it was 5.6 mM.

B1: ApiOne: wild-type Shigella flexneri apyrase, SEQ ID NO: 1, termed ApiOne (protein, listed as Shigella flexneri)
chain: MKTKNFLLFCIATNMIFIPSANALKAEGFLTQQTSPDSLSILPPPPAENSVVFQADKAHYEFGRSLRDANRVRLASEDAYYENFGLAFSDAYGMDISRENTPILYQLLTQVLQDSHDYAVRNAKEYYKRVRPFVIYKDATCTPDKDEKMAITGSYPSGHASFGWAVALILAEINPQRKAEILRRGYEFGESRVICGAHWQSDVEAGRLMGASVVAVLHNTPEFTKSLSEAKKEFEELNTPTNELTP
Regarding B1, the pNPP hydrolysis entry in data set [8] is given as “not active”; in data set [8] (listed as wildtype enzyme) it was “lacks such activity”. Besides, the “Hydrolysis of TPP (in words)” value in data set [9] is “no detectable activity”. In addition, the “Hydrolysis of pNPP” value in data set [10] is recorded as “does not hydrolyse”.

B2: E77V: Shigella flexneri apyrase (SEQ ID NO: 1) with single substitution E77V (protein, listed as Shigella flexneri)
chain: MKTKNFLLFCIATNMIFIPSANALKAEGFLTQQTSPDSLSILPPPPAENSVVFQADKAHYEFGRSLRDANRVRLASVDAYYENFGLAFSDAYGMDISRENTPILYQLLTQVLQDSHDYAVRNAKEYYKRVRPFVIYKDATCTPDKDEKMAITGSYPSGHASFGWAVALILAEINPQRKAEILRRGYEFGESRVICGAHWQSDVEAGRLMGASVVAVLHNTPEFTKSLSEAKKEFEELNTPTNELTP
Consider B2, for which the “Hydrolysis of pNPP (in words)” value in [11] is recorded as “could hydrolyse”. The “Hydrolysis of TPP (in words)” value in data set [9] is “could hydrolyse”.

B3: L66V (protein, listed as Shigella flexneri)
chain: MKTKNFLLFCIATNMIFIPSANALKAEGFLTQQTSPDSLSILPPPPAENSVVFQADKAHYEFGRSVRDANRVRLASEDAYYENFGLAFSDAYGMDISRENTPILYQLLTQVLQDSHDYAVRNAKEYYKRVRPFVIYKDATCTPDKDEKMAITGSYPSGHASFGWAVALILAEINPQRKAEILRRGYEFGESRVICGAHWQSDVEAGRLMGASVVAVLHNTPEFTKSLSEAKKEFEELNTPTNELTP
As for B3, in [11], the “Hydrolysis of pNPP (in words)” value was “could hydrolyse”. For the same molecule, the “Hydrolysis of TPP (in words)” value in data set [9] was “could hydrolyse”.

B4: F53V: Shigella flexneri apyrase (SEQ ID NO: 1) with single substitution F53V (protein, listed as Shigella flexneri)
chain: MKTKNFLLFCIATNMIFIPSANALKAEGFLTQQTSPDSLSILPPPPAENSVVVQADKAHYEFGRSLRDANRVRLASEDAYYENFGLAFSDAYGMDISRENTPILYQLLTQVLQDSHDYAVRNAKEYYKRVRPFVIYKDATCTPDKDEKMAITGSYPSGHASFGWAVALILAEINPQRKAEILRRGYEFGESRVICGAHWQSDVEAGRLMGASVVAVLHNTPEFTKSLSEAKKEFEELNTPTNELTP
With B4, the “Hydrolysis of pNPP (in words)” value in data set [11] is given as “could hydrolyse”. For the same molecule, in [9], the “Hydrolysis of TPP (in words)” value is “could hydrolyse”.

B5: Mutant apyrase (protein)
chain: MKTKNFLLFCIATNMIFIPSANALKAEGFLTQQTSPDSLSILPPPPAENNVVVQADKAHYEFRRSVRDAQRVRLASVDIYYENFGLAFSTAYGMDITRENTPILYQLMTQVLNDSHDYARRNAREYQKRVRPFVIYKDATCTRDKDEKMALTGSYPSGHASNGWAVGLILAEIQPQRRAEIFRRAYEFGESRVICGAHYQSDVEARRLMGASAVAVLHKTPEWTKSSSEAKKEYEELNQPTNDLTPLEHHHHHH
modifications: Synthetic construct mutated variant
Turning to B5, the “ATP hydrolysis by periplasmic fraction” value in [12] is “can hydrolyse ATP similar to the WT apyrase”. Further, the “ATP degradation activity compared with wild-type” value in data set [13] (ATP 100 mM to 0.01 mM, 37° C., FIG. 4) is listed as “indistinguishable from the wild-type enzyme”. Moreover, the Specific activity in data set [13] (at 10 mM ATP) amounted to 6.3 µmol/min/mg. Moreover, the pNPP hydrolysis result in data set [8] (listed as mutant) is given as “has acquired the ability to hydrolyse pNPP”; in data set [8] (listed as mutant apyrase), “considerable activity”.
